Measured values taken from publication PMC5965843, “Structural study reveals the temperature-dependent conformational flexibility of Tk-PTP, a protein tyrosine phosphatase from Thermococcus kodakaraensis KOD1” (PLoS ONE, 2018).

Experiments:
[1] = target: T1, Tk-PTP (Thermococcus kodakarensis, UniProt Q8X270); assay: X-ray crystal structure, […] Å; format: binding; details: active site (P-loop); protein heated at 60°C for 3 h with sodium vanadate at 1:3 molar ratio
T1 construct: recombinant, E. coli BL21(DE3) RIL; codon-optimized gene; wild type in pET28a, N-terminal His6-tag removed by thrombin; mutants in pET21a, Ni-NTA purified; P-loop HC93MGGLGR99

[2] = tested on: Cc1cc(=O)oc2c(F)c(OP(=O)(O)O)c(F)cc12; assay: purified protein; details: 60°C (active form II), pH 5.0 sodium citrate, 200 mM NaCl, 5 mM dithiothreitol

[O]=[V]([OH])([OH])[OH] [vanadate] was tested, and the “X-ray crystal structure, 1.8 Å” value [1] was “Vanadate is anchored in the active site of Tk-PTP(form II)”.

In the case of Tk-PTP (Thermococcus kodakarensis KOD1), the Km [2] is reported as 276 µM and the kcat [2] is reported as 30.0 s⁻¹.

For “Tk-PTP (Thermococcus kodakarensis KOD1; D63A)”, the Km [2] was 27.4 ± 10.6 µM and the kcat [2] was 1.29 ± 0.047 s⁻¹.

Work on “Tk-PTP (Thermococcus kodakarensis KOD1; D63N)” yielded a Km [2] of 252 ± 50 µM and a kcat [2] of 2.92 ± 0.15 s⁻¹.

With “Tk-PTP (Thermococcus kodakarensis KOD1; E132A)” the Km [2] was 23 ± 8.4 µM and the kcat [2] was 3.83 ± 0.14 s⁻¹.

Work on “Tk-PTP (Thermococcus kodakarensis KOD1; E132L)” yielded a Km [2] of 251 ± 423 µM and a kcat [2] of 2.97 ± 0.15 s⁻¹.

Work on “Tk-PTP (Thermococcus kodakarensis KOD1; E132Q)” yielded a Km [2] of 150 ± 62 µM and a kcat [2] of 8.82 ± 0.13 s⁻¹.

“Tk-PTP (Thermococcus kodakarensis KOD1; G95A)” was tested, and the Km [2] was 106 ± 10 µM and the kcat [2] was 35.8 ± 0.7 s⁻¹.

With “Tk-PTP (Thermococcus kodakarensis KOD1; Q136A)” the Km [2] was 135 ± 16 µM and the kcat [2] was 0.460 ± 0.015 s⁻¹.

“Tk-PTP (Thermococcus kodakarensis KOD1; R124A)” was tested, and the Km [2] was 301 ± 109 µM and the kcat [2] was 1.59 ± 0.65 s⁻¹.

With “Tk-PTP (Thermococcus kodakarensis KOD1; R124E)” the Km [2] was 258 ± 43 µM and the kcat [2] was 0.188 ± 0.052 s⁻¹.
